Laboratory results as given in the supplement of paper PMC12764529.
± gives the half width of the 95% confidence interval.

Assay: folding stability dG unfold from trypsin proteolysis; higher = more stable
Procedure, shortened: (§1)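 Only designs with AlphaFold2 dimer inter-PAE above 15 were retained; each was a mini-protein under 80 residues with no cysteine, in a PA-tagged cDNA display construct. After digestion with trypsin and chymotrypsin and sequencing, K50 was inferred by Bayesian fitting of counts, and unfolding free energy was derived per protease or combined against a sequence-predicted unfolded-state K50 and a shared folded-state K50.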

| Sequence | folding stability dG unfold [kcal/mol] |
| --- | --- |
| SAGGSASSVPVELEYETPGDPSSSSYTLEPVDLPPELASRIVEVTAKVEKEGGKLKITATVTLTDLSAGGSA [r15_321_JUSTAS] | 0.723 ± 0.12 |
| SAGGSAGGKLKIEITLEKVKNPETKEYYYRLRVTIYNENGKKIKEIEVVAKSKEEALEALKKLLSAGGSAGG [r6_974_TrROS_Hall] | 4.98 ± 0.22 |
| SAGGSAMPDNMKPVGSIPMVYLVPDGWIMRINYEYWKNPESGMWMINMDIEVFPLPKNDPELLKAISAGGSA [r15_207_TrROS] | 2.42 ± 0.18 |
| SAGMVKIEIEVKVEKDEDGRLRVTVRITIYDEKTGEKLKEIEIEVEAPSEEEAERAARKKAEELLKELSAGG [r19_255_TrROS_Hall] | 3.9 ± 0.18 |
| SAGGSAEVERFEIPVTSEEELEKLIEELKKAPGVLSVEKTPDGTLVVTVPKGKSDIVEEAAKKAGLSAGGSA [r15_834_JUSTAS] | 2.7 ± 0.12 |
| SAPVRGPDGSVFEVDDITFDPDTRTVTVTTPEGTYTFPVPPGWVVEFDPVTKEITVRPLPDLSPENNPFPSA [r9_551_TrMRF] | 2.54 ± 0.15 |
| SAGGSAGGSAGSYTVEPVELDDDSTLIRYTYPTDPNAVFPVVTVYPDGPVLTEPVVYSSSSAGGSAGGSAGG [r11_747_JUSTAS] | 0.271 ± 0.037 |
| SAGGSAGGSAGGSMIVITTEGEEVRNSLPSSYNILETKEDPSVPSYTYDIKKPGTGKEESAGGSAGGSAGGS [r4_435_JUSTAS] | -1.55 ± 0.38 |
| SAGKKKKEVKKITLVIEFPEEMTEEELKERAEKLAEELKKKFPKIKKIEVKVEKKDGKLIVTVEIEIEKSAG [r5_446_TrROS_Hall] | 2.02 ± 0.064 |
| SAGGSAGGSASFTTTPVQFPDNTRVTTVTLDPETGTTIATVTSPSATSLVTIPGDTTTLTGSSAGGSAGGSA [r18_212_JUSTAS] | 0.551 ± 0.023 |
| SAGGEVRIEVEIEVDPETGTVTVRAKIERDGKLFEVEMTLRVEPEEKPEKAPEVTVTVTVVFKPEGKSAGGS [r16_108_TrROS_Hall] | 3.01 ± 0.26 |
| SAGGSAGGSMIGTADGTPVPFEVTHAEVYEVTLPNGEKYYLIKAYDPSTGKYFVALIPAKDIASAGGSAGGS [r12_823_TrMRF] | 2.77 ± 0.11 |
| SAGGATVTVTEYPLPTGTLYRVTVTVGSKTTTFTVPPGVSLEEIKEIVEKEVGVDLTTVTTTTVSTAAASAG [r5_181_JUSTAS] | 3.06 ± 0.14 |
| SAGGSAGGMLRIKTKDGKEIEITDDEVRIRFADGKKTVTVPAEKLKEALEAAEKAGMEIVEIEPSAGGSAGG [r6_337_TrROS_Hall] | 0.00945 ± 0.21 |
| SAGGSAGGMPLLPLNKEVRVLSVSYIPPNDVVVVRVKGLDNVESTILIPVSLAKNIPISPDSTLSAGGSAGG [r6_910_TrMRF] | 0.944 ± 0.024 |
| SAGMTVTLTVSEAEFNALFGPDKDAEAIAAHLESQGYVIKSISTTSSTDPETGGRTLTITLDVEPPLVSAGG [r19_376_JUSTAS] | 3.29 ± 0.09 |
| SAGTIIIPMKEIREELGYPPGSPPSQMRDRIRDLIRRLYPRGIRPTDIDIESNGDNWYITVDIKLPPGASAG [r14_158_TrROS] | 2.26 ± 0.058 |
| SAGGSVEEIAEELAKQPSYTKVTVTLFVDPDGTARVVITDVENGKTYTVPLPPAATPVGTLTLPVESAGGSA [r2_74_JUSTAS] | 1.56 ± 0.026 |
| SAGGSAGGLEDVIRALGLELLEREKIGEKIRILARDPNADRLYEVTVTLEGPPEIEITPLPPGLSAGGSAGG [r6_195_JUSTAS] | 2.79 ± 0.052 |
| SAGGSAGGSAGGSVVTRLPNGSYRYTVTRVSFDPKTGTWSSETTVLTVPPDRPVEIPPGSAGGSAGGSAGGS [r4_48_JUSTAS] | 1.14 ± 0.049 |
| SAGGSAGGSAGGKVTKVILYPLPGGKVRLIIYGDDGKPYFFETSFEDLKNFPNIPFIILPSAGGSAGGSAGG [r7_238_TrMRF] | 2.19 ± 0.069 |

| Sequence | folding stability dG unfold [kcal/mol] |
| --- | --- |
| SAGGSAGGMTVEIDLDLEVPDGGVRLERLVVDPERPLVLAFLTLEDGTKRVIPFESLEELLERLSAGGSAGG [r6_547_TrMRF] | 1.26 ± 0.064 |
| SAGGSAGGSAGGSMSTINFPSKEEIEAYLKKLGLKNVKLPWYPNNNVMDTSDIEKDILESAGGSAGGSAGGS [r4_101_JUSTAS] | 0.996 ± 0.022 |
| SKKKITIEVEVEKDEETGEYTVRIRITVDGKEIEIEIKAKTPEEAKEKAKKLAEELLKKYPDKVKIEIKPSA [r9_1148_TrROS_Hall] | 2.48 ± 0.11 |
| SAGGSAGGSAGQTLLVEVNGQLAEITIDPDVPGQITITLPNGEQITLEVRLEPPPPPEEESAGGSAGGSAGG [r17_85_TrROS_Hall] | 2.08 ± 0.3 |
| SAMSAEELAERLRERLKKLAEEEGLEVEITVTVEENEDGSLTVTITVKSEEEAERIKEKLPEGVKVEKKSAG [r14_491_TrROS_Hall] | 1.43 ± 0.054 |
| PDDVYVMFEIEPTNDGIKIPIKVRVPGKPIAEVEVPVDPDDGKIKIMVKFPSPEALDEAEDLLKELGIKPTS [r1_455_TrROS] | 0.319 ± 0.11 |
| SAGGSAGGSAMLLPSEEEAEKAAAELRAKTGWRVTVEKVGTGEDGTVVYRLTVVPPDLPLESAGGSAGGSAG [r3_59_JUSTAS] | 2.84 ± 0.048 |
| SALPPEVVRKLALDALRALYPDEPFVPVSMEVDPETGEVTVLVARPGPDDSLRLVRRTFRVLDDGRVLGSAG [r14_183_TrMRF] | 2.8 ± 0.067 |
| SAGGSASLTVVYPGGETRTFDVSAVSPEFLRAHPDVTVTLPGGEERRLAGDTELSPAGPHTITVPASAGGSA [r15_733_JUSTAS] | 2.39 ± 0.11 |
| SAGGSAGGSMEENKPVVTLTTVEIYIESEVDPSLGKPLNPKKITVTLTTTVPPDGSTSTSTLFSAGGSAGGS [r12_438_JUSTAS] | 1.11 ± 0.17 |
| SAGGSAGGDSIEFIIPYDDMPKEEAKRRVRWIANGFAEHNPGKPIEIEIHVIPVPPPPSPEDKNSAGGSAGG [r6_729_TrROS] | -0.0761 ± 0.16 |
| SAGGSAGNPVPKVTVTDVTFGIPESDPSLLEKKAEEVAAELNKPELTVTITEYDPATYTFTITVVSSAGGSA [r15_563_JUSTAS] | 0.648 ± 0.021 |
| SAGGSAGGSKTLKIEIPVEEESEEEARKKIKEALKELGIKEITEEDIKIERKEDGTLRAEIKLSAGGSAGGS [r12_122_TrROS_Hall] | 0.987 ± 0.084 |
| SAGGPKWVIIIEIEIKPKNNGKEFEFTFVFPPGQTLDEIKSFIKEFAPPGHKVELKIEDIQLVPPDDSAGGS [r16_393_TrROS] | 2.2 ± 0.15 |
| SSPVSFSTSTTSPPSPSSLPDGSTLSTTTTTYTAPDGSRYTVTSTTLTPPTGPATPVSTTTTSTGSSGPSSA [r9_394_JUSTAS] | 0.514 ± 0.018 |
| SAGGSAGGMIIQEVEEFKDKSEEEVKKKMLEELKKKYPKSYKVKITVTKNPSGKYTVTVTITPNSAGGSAGG [r6_964_JUSTAS] | 2.19 ± 0.047 |
| SAGGPVTTVSVSGFVLPDGSRALLVTVATYYPDGYVAVPPVLVLVYPNGESEASTSTLVVKVPGGALSAGGS [r16_505_TrMRF] | 2.3 ± 0.056 |
| SAGGSAGGSAEKRIVAKVTEVRENEDGEKTVRVRITLPNGEELEVEVRRVERVGDYLVIELSAGGSAGGSAG [r3_261_TrROS_Hall] | 1.26 ± 0.037 |
| SAGGSAGGSKKPKFKVKKVEVVEENGKLRIRIVLEDGKKIEIEIKGLSKEEIEKKAKELLKKLSAGGSAGGS [r20_181_TrROS_Hall] | 3.57 ± 0.33 |
| SGMLLTVATKTEESELPDGGKKKVTTTTVELSGPHSVTYTPVTTLAPDGTVPASTTTVYDTVSGETTTAPSA [r9_641_JUSTAS] | 0.259 ± 0.032 |
| YMVFIRIEVEDPKNGEEKAEIPIPIPIPPGDLKNMPPEDREKMIEEAKYFAEELAEEKGNVKIKPEIQWFES [r1_115_TrROS] | -0.246 ± 0.19 |

Assay: folding stability dG unfold (combined trypsin and chymotrypsin); higher = more stable
Procedure, shortened: as §1

| Sequence | folding stability dG unfold [kcal/mol] |
| --- | --- |
| SAGGSASSVPVELEYETPGDPSSSSYTLEPVDLPPELASRIVEVTAKVEKEGGKLKITATVTLTDLSAGGSA [r15_321_JUSTAS] | 0.48 ± 0.2 |
| SAGGSAGGKLKIEITLEKVKNPETKEYYYRLRVTIYNENGKKIKEIEVVAKSKEEALEALKKLLSAGGSAGG [r6_974_TrROS_Hall] | 5.2 ± 0.13 |
| SAGGSAMPDNMKPVGSIPMVYLVPDGWIMRINYEYWKNPESGMWMINMDIEVFPLPKNDPELLKAISAGGSA [r15_207_TrROS] | 2.62 ± 0.18 |
| SAGMVKIEIEVKVEKDEDGRLRVTVRITIYDEKTGEKLKEIEIEVEAPSEEEAERAARKKAEELLKELSAGG [r19_255_TrROS_Hall] | 3.25 ± 0.19 |
| SAGGSAEVERFEIPVTSEEELEKLIEELKKAPGVLSVEKTPDGTLVVTVPKGKSDIVEEAAKKAGLSAGGSA [r15_834_JUSTAS] | 2.97 ± 0.09 |
| SAPVRGPDGSVFEVDDITFDPDTRTVTVTTPEGTYTFPVPPGWVVEFDPVTKEITVRPLPDLSPENNPFPSA [r9_551_TrMRF] | 2.79 ± 0.097 |
| SAGGSAGGSAGSYTVEPVELDDDSTLIRYTYPTDPNAVFPVVTVYPDGPVLTEPVVYSSSSAGGSAGGSAGG [r11_747_JUSTAS] | 0.244 ± 0.091 |
| SAGGSAGGSAGGSMIVITTEGEEVRNSLPSSYNILETKEDPSVPSYTYDIKKPGTGKEESAGGSAGGSAGGS [r4_435_JUSTAS] | < -1 |
| SAGKKKKEVKKITLVIEFPEEMTEEELKERAEKLAEELKKKFPKIKKIEVKVEKKDGKLIVTVEIEIEKSAG [r5_446_TrROS_Hall] | 1.88 ± 0.15 |
| SAGGSAGGSASFTTTPVQFPDNTRVTTVTLDPETGTTIATVTSPSATSLVTIPGDTTTLTGSSAGGSAGGSA [r18_212_JUSTAS] | 0.286 ± 0.045 |
| SAGGEVRIEVEIEVDPETGTVTVRAKIERDGKLFEVEMTLRVEPEEKPEKAPEVTVTVTVVFKPEGKSAGGS [r16_108_TrROS_Hall] | 2.78 ± 0.34 |
| SAGGSAGGSMIGTADGTPVPFEVTHAEVYEVTLPNGEKYYLIKAYDPSTGKYFVALIPAKDIASAGGSAGGS [r12_823_TrMRF] | 2.8 ± 0.1 |
| SAGGATVTVTEYPLPTGTLYRVTVTVGSKTTTFTVPPGVSLEEIKEIVEKEVGVDLTTVTTTTVSTAAASAG [r5_181_JUSTAS] | 3.56 ± 0.14 |
| SAGGSAGGMLRIKTKDGKEIEITDDEVRIRFADGKKTVTVPAEKLKEALEAAEKAGMEIVEIEPSAGGSAGG [r6_337_TrROS_Hall] | 1.44 ± 0.16 |
| SAGGSAGGMPLLPLNKEVRVLSVSYIPPNDVVVVRVKGLDNVESTILIPVSLAKNIPISPDSTLSAGGSAGG [r6_910_TrMRF] | 0.733 ± 0.056 |
| SAGMTVTLTVSEAEFNALFGPDKDAEAIAAHLESQGYVIKSISTTSSTDPETGGRTLTITLDVEPPLVSAGG [r19_376_JUSTAS] | 3.54 ± 0.071 |
| SAGTIIIPMKEIREELGYPPGSPPSQMRDRIRDLIRRLYPRGIRPTDIDIESNGDNWYITVDIKLPPGASAG [r14_158_TrROS] | 2.63 ± 0.11 |
| SAGGSVEEIAEELAKQPSYTKVTVTLFVDPDGTARVVITDVENGKTYTVPLPPAATPVGTLTLPVESAGGSA [r2_74_JUSTAS] | 1.63 ± 0.083 |
| SAGGSAGGLEDVIRALGLELLEREKIGEKIRILARDPNADRLYEVTVTLEGPPEIEITPLPPGLSAGGSAGG [r6_195_JUSTAS] | 3.04 ± 0.037 |
| SAGGSAGGSAGGSVVTRLPNGSYRYTVTRVSFDPKTGTWSSETTVLTVPPDRPVEIPPGSAGGSAGGSAGGS [r4_48_JUSTAS] | 1.89 ± 0.096 |
| SAGGSAGGSAGGKVTKVILYPLPGGKVRLIIYGDDGKPYFFETSFEDLKNFPNIPFIILPSAGGSAGGSAGG [r7_238_TrMRF] | 2.11 ± 0.073 |
